# According to patent US20030104423:
# B1: β′ mutant R297L (protein)
# chain: MKDLLKFLKAQTKTEEFDAIKIALASPDMIRSWSFGEVKKPETINYRTFKPERDGLFCARIFGPVKDYECLCGKYKRLKHRGVICEKCGVEVTQTKVRRERMGHIELASPTAHIWFLKSLPSRIGLLLDMPLRDIERVLYFESYVVIEGGMTNLERQQILTEEQYLDALEEFGDEFDAKMGAEAIQALLKSMDLEQECEQLREELNETNSETKRKKLTKRIKLLEAFVQSGNKPEWMILTVLPVLPPDLRPLVPLDGGRFATSDLNDLYRRVINRNNRLKRLLDLAAPDIIVRNEKLMLQEAVDALLDNGRRGRAITGS
# B2: β′ mutant L299D (protein)
# chain: MKDLLKFLKAQTKTEEFDAIKIALASPDMIRSWSFGEVKKPETINYRTFKPERDGLFCARIFGPVKDYECLCGKYKRLKHRGVICEKCGVEVTQTKVRRERMGHIELASPTAHIWFLKSLPSRIGLLLDMPLRDIERVLYFESYVVIEGGMTNLERQQILTEEQYLDALEEFGDEFDAKMGAEAIQALLKSMDLEQECEQLREELNETNSETKRKKLTKRIKLLEAFVQSGNKPEWMILTVLPVLPPDLRPLVPLDGGRFATSDLNDLYRRVINRNNRLKRLLDLAAPDIIVRNEKRMDQEAVDALLDNGRRGRAITGS
# B3: β′ mutant E301K (protein)
# chain: MKDLLKFLKAQTKTEEFDAIKIALASPDMIRSWSFGEVKKPETINYRTFKPERDGLFCARIFGPVKDYECLCGKYKRLKHRGVICEKCGVEVTQTKVRRERMGHIELASPTAHIWFLKSLPSRIGLLLDMPLRDIERVLYFESYVVIEGGMTNLERQQILTEEQYLDALEEFGDEFDAKMGAEAIQALLKSMDLEQECEQLREELNETNSETKRKKLTKRIKLLEAFVQSGNKPEWMILTVLPVLPPDLRPLVPLDGGRFATSDLNDLYRRVINRNNRLKRLLDLAAPDIIVRNEKRMLQKAVDALLDNGRRGRAITGS
# B4: β′ mutant E301P (protein)
# chain: MKDLLKFLKAQTKTEEFDAIKIALASPDMIRSWSFGEVKKPETINYRTFKPERDGLFCARIFGPVKDYECLCGKYKRLKHRGVICEKCGVEVTQTKVRRERMGHIELASPTAHIWFLKSLPSRIGLLLDMPLRDIERVLYFESYVVIEGGMTNLERQQILTEEQYLDALEEFGDEFDAKMGAEAIQALLKSMDLEQECEQLREELNETNSETKRKKLTKRIKLLEAFVQSGNKPEWMILTVLPVLPPDLRPLVPLDGGRFATSDLNDLYRRVINRNNRLKRLLDLAAPDIIVRNEKRMLQPAVDALLDNGRRGRAITGS
# B5: β′ mutant R270L (protein)
# chain: MKDLLKFLKAQTKTEEFDAIKIALASPDMIRSWSFGEVKKPETINYRTFKPERDGLFCARIFGPVKDYECLCGKYKRLKHRGVICEKCGVEVTQTKVRRERMGHIELASPTAHIWFLKSLPSRIGLLLDMPLRDIERVLYFESYVVIEGGMTNLERQQILTEEQYLDALEEFGDEFDAKMGAEAIQALLKSMDLEQECEQLREELNETNSETKRKKLTKRIKLLEAFVQSGNKPEWMILTVLPVLPPDLRPLVPLDGGRFATSDLNDLYLRVINRNNRLKRLLDLAAPDIIVRNEKRMLQEAVDALLDNGRRGRAITGS
# B6: β′ mutant V272D (protein)
# chain: MKDLLKFLKAQTKTEEFDAIKIALASPDMIRSWSFGEVKKPETINYRTFKPERDGLFCARIFGPVKDYECLCGKYKRLKHRGVICEKCGVEVTQTKVRRERMGHIELASPTAHIWFLKSLPSRIGLLLDMPLRDIERVLYFESYVVIEGGMTNLERQQILTEEQYLDALEEFGDEFDAKMGAEAIQALLKSMDLEQECEQLREELNETNSETKRKKLTKRIKLLEAFVQSGNKPEWMILTVLPVLPPDLRPLVPLDGGRFATSDLNDLYRRDINRNNRLKRLLDLAAPDIIVRNEKRMLQEAVDALLDNGRRGRAITGS
# B7: β′ mutant N274D (protein)
# chain: MKDLLKFLKAQTKTEEFDAIKIALASPDMIRSWSFGEVKKPETINYRTFKPERDGLFCARIFGPVKDYECLCGKYKRLKHRGVICEKCGVEVTQTKVRRERMGHIELASPTAHIWFLKSLPSRIGLLLDMPLRDIERVLYFESYVVIEGGMTNLERQQILTEEQYLDALEEFGDEFDAKMGAEAIQALLKSMDLEQECEQLREELNETNSETKRKKLTKRIKLLEAFVQSGNKPEWMILTVLPVLPPDLRPLVPLDGGRFATSDLNDLYRRVIDRNNRLKRLLDLAAPDIIVRNEKRMLQEAVDALLDNGRRGRAITGS
# B8: β′ mutant N274P (protein)
# chain: MKDLLKFLKAQTKTEEFDAIKIALASPDMIRSWSFGEVKKPETINYRTFKPERDGLFCARIFGPVKDYECLCGKYKRLKHRGVICEKCGVEVTQTKVRRERMGHIELASPTAHIWFLKSLPSRIGLLLDMPLRDIERVLYFESYVVIEGGMTNLERQQILTEEQYLDALEEFGDEFDAKMGAEAIQALLKSMDLEQECEQLREELNETNSETKRKKLTKRIKLLEAFVQSGNKPEWMILTVLPVLPPDLRPLVPLDGGRFATSDLNDLYRRVIPRNNRLKRLLDLAAPDIIVRNEKRMLQEAVDALLDNGRRGRAITGS
# Target: σ70, native, untagged (pLN12), P00579
# Sequence (P00579 whole entry): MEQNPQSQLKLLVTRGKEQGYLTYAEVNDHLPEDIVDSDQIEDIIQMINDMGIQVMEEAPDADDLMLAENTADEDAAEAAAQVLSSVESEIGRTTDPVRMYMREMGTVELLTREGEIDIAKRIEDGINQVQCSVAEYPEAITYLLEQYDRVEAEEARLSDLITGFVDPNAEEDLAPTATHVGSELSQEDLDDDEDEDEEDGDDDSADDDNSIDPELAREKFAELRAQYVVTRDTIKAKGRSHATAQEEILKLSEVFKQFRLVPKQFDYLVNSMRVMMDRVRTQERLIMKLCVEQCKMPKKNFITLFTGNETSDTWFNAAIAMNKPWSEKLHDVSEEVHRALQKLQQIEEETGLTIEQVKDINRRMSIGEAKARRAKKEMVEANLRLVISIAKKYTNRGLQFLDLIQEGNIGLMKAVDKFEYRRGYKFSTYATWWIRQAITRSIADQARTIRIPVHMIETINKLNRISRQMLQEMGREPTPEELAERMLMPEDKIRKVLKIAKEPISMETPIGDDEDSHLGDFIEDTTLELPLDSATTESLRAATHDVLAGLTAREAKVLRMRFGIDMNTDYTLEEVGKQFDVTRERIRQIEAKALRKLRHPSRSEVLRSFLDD
row,Protein,Growth at 42° C. with plasmid β′ as sole source of β′ (strain RL602)
1,B1,-
2,B2,-
3,B3,+
4,B4,-
5,B5,+
6,B6,-
7,B7,+
8,B8,-
